In US20060153840A1 one finds decrease in transwell migration of HUAEC data, which are given here for 1 substance.

The experiment deals with UNC5H2 on human umbilical artery endothelial cells (HUAEC) (human) (UniProt Q8IZJ1). The experiment can be described thus: cell-based or functional assay.
UniProt Q8IZJ1, sequence (Q8IZJ1 other isoform, or with tags, fused parts or gaps limits assumed): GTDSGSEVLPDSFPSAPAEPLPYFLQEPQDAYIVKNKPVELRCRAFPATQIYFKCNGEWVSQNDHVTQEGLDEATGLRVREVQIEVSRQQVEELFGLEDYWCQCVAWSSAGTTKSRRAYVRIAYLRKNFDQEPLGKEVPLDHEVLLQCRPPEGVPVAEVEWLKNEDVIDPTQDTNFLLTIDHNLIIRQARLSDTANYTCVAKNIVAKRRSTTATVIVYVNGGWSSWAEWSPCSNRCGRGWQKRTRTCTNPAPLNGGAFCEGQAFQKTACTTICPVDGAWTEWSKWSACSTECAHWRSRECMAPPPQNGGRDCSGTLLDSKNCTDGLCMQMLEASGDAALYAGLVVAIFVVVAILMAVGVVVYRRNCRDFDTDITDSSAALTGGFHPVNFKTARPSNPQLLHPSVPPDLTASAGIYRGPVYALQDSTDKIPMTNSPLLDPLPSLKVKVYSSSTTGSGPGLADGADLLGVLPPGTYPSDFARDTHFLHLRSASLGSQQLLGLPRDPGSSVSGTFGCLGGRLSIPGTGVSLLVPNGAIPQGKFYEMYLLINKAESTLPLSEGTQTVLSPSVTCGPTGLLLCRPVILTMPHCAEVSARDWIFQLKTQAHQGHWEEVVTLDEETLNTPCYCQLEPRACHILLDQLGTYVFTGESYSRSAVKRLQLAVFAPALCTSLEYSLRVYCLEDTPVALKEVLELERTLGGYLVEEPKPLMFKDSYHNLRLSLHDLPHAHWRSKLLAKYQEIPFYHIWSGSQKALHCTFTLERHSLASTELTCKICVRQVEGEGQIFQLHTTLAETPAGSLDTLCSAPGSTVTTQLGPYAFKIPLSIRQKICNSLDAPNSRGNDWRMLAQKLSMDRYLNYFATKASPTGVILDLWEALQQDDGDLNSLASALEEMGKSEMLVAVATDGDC

The substance “Netrin-1 secreted by stably transfected 293 cells (ligand)” showed a decrease in transwell migration of HUAEC of 40%.
